Source: patent US20070134720A1 (published 2007)
No end group written: not given here.

What was measured:
GST protein = target: T1, GST protein (UniProt P08515 1-218 = GST); test: GST pulldown, SDS-PAGE and autoradiography
T1 construct: Control in the pulldown; also called control GST protein
Description: A [³⁵S]-labeled Flag-P4HA1 fused protein was prepared using the TNT-coupled Translation System (Promega Corporation) and pcDNA3-Flag-P4HA1. The fused protein was added, together with GST-Syno dTM, GST-Syno RING and GST protein, to a binding buffer containing 20 mM HEPES (pH 7.9), 100 mM NaCl, 1 mM EDTA, 0.05% Tween, 5% glycerol, 1 mM DTT, 0.2 mM NaVO₄, 5 mM NaF, and 1 mM PMSF and reacted at 4° C. for 16 hours. The resulting reaction product was developed over SDS-PAGE and its radioactivity was detected with an image analyzer (BAS2000, Fujix). The binding of GST-Syno dTM and GST-Syno RING fusion protein with [³⁵S]-labeled pcDNA3-Flag-P4HA1 was observed. In contrast, no binding was found between the control GST protein and pcDNA3-Flag-P4HA1 (FIG. 2).

[1] = target: T2, GST-fused P4HA1 protein (whole region of P4HA1) (human, UniProt P13674 18-534); test: HTRF competition: 60 ng MBP-synoviolin-His and 10 ng GST-P4HA1, XL665-labeled anti-His and Eu(K)-labeled anti-GST antibodies
T2 construct: Made in E. coli; also called GST-P4HA1; GST-fused P4HA1 protein beads; not shown: GST (glutathione S-transferase) fusion partner of vector pGEX 4T-1
Description: A standard reaction mixture comprising 60 ng MBP-synoviolin-His, 10 ng GST-P4HA1, 1 mM DTT, 1 mM EDTA, 50 mM NaCl, 0.1% BSA, 0.3% DMSO, and a test compound in 15 μL of 50 mM HEPES (pH 7.5) solution was prepared using a 384-well plate. The reaction was initiated by adding 5 μL of a 50 mM HEPES solution comprising GST-P4HA1. After a 30 minute reaction at room temperature, 5 μL of a 50 mM HEPES solution comprising an Eu(K)-labeled anti-GST antibody (20000 B counts, CIS bio international), a XL665-labeled anti-His antibody (0.025 μg, CIS bio international), and 1 M K was added. The mixture was left to stand overnight at room temperature, and the fluorescence was measured using RUBYstar™.

T1 sequence (P08515 whole entry): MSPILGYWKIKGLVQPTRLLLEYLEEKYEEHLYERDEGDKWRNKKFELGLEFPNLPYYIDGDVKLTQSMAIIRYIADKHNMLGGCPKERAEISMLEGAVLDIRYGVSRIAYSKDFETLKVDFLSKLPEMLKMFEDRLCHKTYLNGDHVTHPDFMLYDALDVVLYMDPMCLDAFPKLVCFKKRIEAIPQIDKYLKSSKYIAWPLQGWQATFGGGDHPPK

Row | binding result (GST protein) | IC50 [1] [µg/mL] | Binder
1 | no binding |  | [35S]-labeled Flag-P4HA1 fused protein (enzyme, 35S label from in vitro translation (the FIG. 2 legend prints 32P), Made with the TNT-coupled Translation System from pcDNA3-Flag-P4HA1; also called pcDNA3-Flag-P4HA1; [32P]-labeled Flag-P4HA1 fused protein; not shown: Flag tag) HPGFFTSIGQMTDLIHTEKDLVTSLKDYIKAEEDKLEQIKKWAEKLDRLTSTATKDPEGFVGHPVNAFKLMKRLNTEWSELENLVLKDMSDGFISNLTIQRQYFPNDEDQVGAAKALLRLQDTYNLDTDTISKGNLPGVKHKSFLTAEDCFELGKVAYTEADYYHTELWMEQALRQLDEGEISTIDKVSVLDYLSYAVYQQGDLDKALLLTKKLLELDPEHQRANGNLKYFEYIMAKEKDVNKSASDDQSDQKTTPKKKGVAVDYLPERQKYEMLCRGEGIKMTPRRQKKLFCRYHDGNRNPKFILAPAKQEDEWDKPRIIRFHDIISDAEIEIVKDLAKPRLSRATVHDPETGKLTTAQYRVSKSAWLSGYENPVVSRINMRIQDLTGLDVSTAEELQVANYGVGGQYEPHFDFARKDEPDAFKELGTGNRIATWLFYMSDVSAGGATVFPEVGASVWPKKGTAVFWYNLFASGEGDYSTRHAACPVLVGNKWVSNKWLHERGQEFRRPCTLSELE
2 |  | 167 | DNVCIICREEMVTGAKRLDCN (cysteine pairing not given here; also: partially modified, modification not given here) [partial peptide of the partially modified synoviolin (SEQ ID NO: 5)]
